The source of these data is patent publication US20220242950A1 (CANTARGIA, published 2022).

Numbering of substitutions follows the chain as printed.

Sequences and labels used below:
B1: h48D2 VH2:VL3 (antibody, human IgG1, kappa, L234A L235A, V domains shown)
VH: EVQLVESGGALVQPGGSLRLSCIVSGPSLSHFDITWFRQAPGKGLEWVATISPGVSTYYASWAKSRFTISTDTSKNTLFLQMDSLRAEDTAVYYCARGGVGSSWKAFDLWGPGTLVTVSS
VL: DILLTQTPSVVSASVGDRVTITCQASESISTALAWYQQKPGQAPRLLIYKASTLPSGVPSRFRGSGSGTDFTLTITSLQPEDFATYYCQQGFSSGNVHNAFGGGTRLEIKR
notes: Humanized; also called VL3:VH2
B2: h48D2 VH3:VL1 (antibody, human IgG1, kappa, L234A L235A, V domains shown)
VH: EVQLLESGGGLVLPGGSLRLSCAASGPSLSHFDITWVRQAPGKGLEWVSTISPGVSTYYASWAKSRFTISRDNSKNTLYLQMSSLRAEDTAVYYCARGGVGSSWKAFDLWGLGTTVTVSS
VL: DIVMTQSPSSLSASVGDRVTITCQASESISTALAWYQQKPGKAPKLLIYKASTLPSGVPSRFSGSGSGTDFTLTISSLQPEDFATYYCQQGFSSGNVHNAFGGGTKVVIKR
notes: Humanized; also called VL1:VH3
B3: h48D2 VH4:VL2 (antibody, human IgG1, kappa, L234A L235A, V domains shown)
VH: QVQLQESGPGLVKPSETLSLTCTVSGPSLSHFDITWIRQPPGKGLEWIGTISPGVSTYYASWAKSRFTISVDTSKNQFSLKLTSVTAADTATYYCARGGVGSSWKAFDLWGPGTLVTVSS
VL: B2 VL with D1Q, M4L, S9A, S10T, D70E, E81D, F83S, G103Q, V107L, V108E
notes: Humanized; also called VL2:VH4
B4: h48D2 VH3:VL2 (antibody, human IgG1, kappa, L234A L235A, V domains shown)
VH: B2 VH
VL: B2 VL with D1Q, M4L, S9A, S10T, D70E, E81D, F83S, G103Q, V107L, V108E
notes: Humanized; also called VL2:VH3
B5: h48D2 VH4:VL1 (antibody, human IgG1, kappa, L234A L235A, V domains shown)
VH: B3 VH
VL: B2 VL
notes: Humanized; also called VL1:VH4
B6: h48D2 VH2:VL2 (antibody, human IgG1, kappa, L234A L235A, V domains shown)
VH: B1 VH
VL: B2 VL with D1Q, M4L, S9A, S10T, D70E, E81D, F83S, G103Q, V107L, V108E
notes: Humanized; also called VL2:VH2
B7: h48D2 VH2:VL4 (antibody, human IgG1, kappa, L234A L235A, V domains shown)
VH: B1 VH
VL: B2 VL with D1E, I2L, L11V, S76N, V108E
notes: Humanized; also called VL4:VH2
B8: h48D2 VH3:VL3 (antibody, human IgG1, kappa, L234A L235A, V domains shown)
VH: B2 VH
VL: B1 VL
notes: Humanized; also called VL3:VH3
B9: h48D2 VH1:VL5 (antibody, human IgG1, kappa, L234A L235A, V domains shown)
VH: B2 VH with L5E, L13K, S83N, L112R, T115L
VL: APVLTQSPATLEASVGDRVTITCQASESISTALAWYQQKPGQPPKLLIYKASTLPSGVPSRFSGSGSGTEFTLTISDLESDDAATYYCQQGFSSGNVHNAFGGGTEVVVKR
notes: Humanized; also called VL5:VH1
B10: h48D2 VH2:VL5 (antibody, human IgG1, kappa, L234A L235A, V domains shown)
VH: B1 VH
VL: B9 VL
notes: Humanized; also called VL5:VH2
B11: h48D2 VH3:VL5 (antibody, human IgG1, kappa, L234A L235A, V domains shown)
VH: B2 VH
VL: B9 VL
notes: Humanized; also called VL5:VH3
B12: h48D2 VH3:VL4 (antibody, human IgG1, kappa, L234A L235A, V domains shown)
VH: B2 VH
VL: B2 VL with D1E, I2L, L11V, S76N, V108E
notes: Humanized; also called VL4:VH3

One assay has as its target T1, recombinant hIL1RAP Domain1+2+3 (aa21-367) (human, UniProt Q9NPH3 21-367).
T1 construct: Numbering on Uniprot Q9NPH3
T1 sequence (looked up): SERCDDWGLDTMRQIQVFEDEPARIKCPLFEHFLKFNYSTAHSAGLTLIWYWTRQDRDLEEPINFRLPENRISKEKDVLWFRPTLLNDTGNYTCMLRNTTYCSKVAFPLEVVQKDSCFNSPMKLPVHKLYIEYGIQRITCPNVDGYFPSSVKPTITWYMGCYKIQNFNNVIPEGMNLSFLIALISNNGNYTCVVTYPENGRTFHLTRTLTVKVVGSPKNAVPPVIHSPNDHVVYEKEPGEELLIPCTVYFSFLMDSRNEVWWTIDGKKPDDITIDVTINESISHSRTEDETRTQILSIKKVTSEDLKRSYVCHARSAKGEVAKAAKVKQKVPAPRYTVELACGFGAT
The experiment in a line: binding ELISA, coated recombinant hIL1RAP aa21-367. On the technique in general: ELISA stands for enzyme-linked immunosorbent assay.
For orientation: IC50 means the concentration at which inhibition is half-maximal. As to B1, the IC50 turned out to be 0.0273 µg/mL.

B2: the concentration for half-maximal inhibition (IC50) turned out to be 0.0257 µg/mL.

With B3, the IC50 is 0.0322 µg/mL.

On to B4, for which the concentration for half-maximal inhibition (IC50) was found to be 0.0258 µg/mL.

As to B5, the IC50 was determined as 0.0308 µg/mL.

In the case of B6, the IC50 is 0.0261 µg/mL.

As for B7, the IC50 was found to be 0.0262 µg/mL.

Regarding B8, the IC50 is 0.0281 µg/mL.

In the case of B9, the IC50 turned out to be 0.0234 µg/mL.

Consider B10, for which the IC50 was determined as 0.0249 µg/mL.

As for B11, the IC50 is 0.0232 µg/mL.

Consider B12, for which the IC50 was 0.0263 µg/mL.

For another assay, the target named is T1, recombinant hIL1RAP Domain1+2+3 …. As to the kind of experiment: bio-layer interferometry, human IL1RAP. Here is the method: Affinity measurements were done on BLItz™ Label-Free Protein Analysis System from ForteBio, using the Basic Kinetics module in the BLItz Pro 1.3.1.3 software from Molecular Devices. Protein A biosensors were hydrated in blocking buffer (PBS, 0.5% BSA, 0.05% Tween 20, pH 7.4) for minimum 10 min at room temperature before coating. Protein A biosensors were coated with antibodies by dipping the biosensors in 200 μl of antibody solution (10 μg/ml in blocking buffer) for 30 min at room temperature. The sensors were then incubated in 200 μl blocking buffer for at least 10 min before use. […] The baseline was made in blocking buffer with a duration time of 30 sec. Association was made for 120 sec in hIL1RAP followed by 120 sec dissociation in blocking buffer.
The antibodies were characterized for A) binding (ELISA analysis, human and cynomolgus monkey IL1RAP), B) inhibition of cytokine signaling (HEK-Blue™ assay), C) affinity (Bio-layer interferometry), D) size heterogeneity (SE-HPLC) and E) yield (concentration, A280). […] SE-HPLC was performed using standard procedures and PBS as running buffer. Affinity and cytokine inhibition were measured as previously described in Example 10. All 25 humanized clones were analyzed for blocking activity on IL-1α, IL-1β and IL-33 signaling while only the clones that had retained the inhibitory activity similar to chimeric 48D2 were analyzed for IL-36 inhibition.
KD values for affinity towards human IL1RAP are shown in Table 11 for the humanized 48D2 variants. Affinity was measured using bio-layer interferometry. […] See also Table 4 for a direct comparison of chimeric 48D2, humanized 48D2 variant VH5:VL4, and a humanized and de-immunized 48D2 variant VH5.GL:VL4.
Usually Kd stands for the constant that tells how readily two partners part at equilibrium. For the molecule B1, the Kd was found to be 0.0121 µM.

In the case of B2, the dissociation constant (Kd) stood at 0.028 µM.

For B3, the Kd came out at 0.0132 µM.

For B4, the Kd was determined as 0.0224 µM.

Take B5: the Kd turned out to be 0.0197 µM.

As for B6, the dissociation constant (Kd) came to 0.00733 µM.

For the molecule B7, the Kd is 0.0112 µM.

B8: the Kd was determined as 0.0274 µM.

As to B9, the Kd came to 0.0316 µM.

Regarding B10, the equilibrium dissociation constant (Kd) was found to be 0.012 µM.

Take B11: the dissociation constant (Kd) came to 0.0344 µM.

On to B12, for which the Kd came out at 0.0296 µM.

A further assay addresses T2, recombinant mf IL1RAP aa21-367 (cynomolgus monkey (Macaca fascicularis), UniProt A0A2K5X5J5 21-367).
T2 construct: also called cynomolgus monkey IL1RAP; cyno IL1RAP
T2 sequence: T1 sequence (looked up) with L183F, T273P, K326T
As to the kind of experiment: binding ELISA, coated recombinant mf IL1RAP aa21-367.
Turning to B1, the half-maximal inhibitory concentration (IC50) was found to be 0.0314 µg/mL.

For the molecule B2, the IC50 is 0.0294 µg/mL.

Consider B3, for which the IC50 came out at 0.0291 µg/mL.

Consider B4, for which the IC50 was 0.0274 µg/mL.

On to B5, for which the half-inhibitory concentration (IC50) is 0.0316 µg/mL.

Consider B6, for which the 50% inhibitory concentration (IC50) came out at 0.0292 µg/mL.

With B7, the IC50 was found to be 0.0312 µg/mL.

Regarding B8, the IC50 came to 0.0279 µg/mL.

As for B9, the IC50 is 0.0242 µg/mL.

Turning to B10, the 50% inhibitory concentration (IC50) is 0.0279 µg/mL.

For the molecule B11, the IC50 amounted to 0.0279 µg/mL.

For B12, the IC50 turned out to be 0.0303 µg/mL.

The target of another assay is T3, human IL1RAP on the cell surface (human, UniProt Q9NPH3 21-570).
T3 sequence (looked up): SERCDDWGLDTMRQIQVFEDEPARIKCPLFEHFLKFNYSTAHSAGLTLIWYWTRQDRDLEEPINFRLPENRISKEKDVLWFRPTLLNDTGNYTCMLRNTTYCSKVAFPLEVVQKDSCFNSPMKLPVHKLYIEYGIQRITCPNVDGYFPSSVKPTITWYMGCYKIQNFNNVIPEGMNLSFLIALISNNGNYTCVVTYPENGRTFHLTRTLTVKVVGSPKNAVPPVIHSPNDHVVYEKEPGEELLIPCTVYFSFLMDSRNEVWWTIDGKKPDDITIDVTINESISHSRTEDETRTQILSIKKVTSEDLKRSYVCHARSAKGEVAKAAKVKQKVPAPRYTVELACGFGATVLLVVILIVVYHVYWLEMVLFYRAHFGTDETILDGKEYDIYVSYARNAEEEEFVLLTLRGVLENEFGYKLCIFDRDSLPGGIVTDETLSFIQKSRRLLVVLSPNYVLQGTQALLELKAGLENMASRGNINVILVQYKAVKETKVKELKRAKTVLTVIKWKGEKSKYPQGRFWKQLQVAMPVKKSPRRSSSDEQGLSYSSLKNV
As to the kind of experiment: cell-based or functional assay.
As to B1, the “IC50 of IL-1β signaling (HEK-Blue assay)” value is 0.00366 µM and the “IC50 of IL-33 signaling (HEK-Blue assay)” value stood at 1.95 µM.

On to B2, for which the “IC50 of IL-1β signaling (HEK-Blue assay)” value was determined as 0.00954 µM and the “IC50 of IL-33 signaling (HEK-Blue assay)” value was ~87.5 µM.

As for B3, the “IC50 of IL-1β signaling (HEK-Blue assay)” value is 0.00555 µM.

As for B4, the “IC50 of IL-1β signaling (HEK-Blue assay)” value came to 0.00911 µM and the “IC50 of IL-33 signaling (HEK-Blue assay)” value amounted to 0.474 µM.

Take B5: the “IC50 of IL-1β signaling (HEK-Blue assay)” value came to 0.00295 µM.

B6: the “IC50 of IL-1β signaling (HEK-Blue assay)” value amounted to 0.000882 µM and the “IC50 of IL-33 signaling (HEK-Blue assay)” value came to 0.0458 µM.

On to B7, for which the “IC50 of IL-1α signaling (HEK-Blue assay)” value is ~4130 µM, the “IC50 of IL-1β signaling (HEK-Blue assay)” value is 0.00136 µM and the “IC50 of IL-33 signaling (HEK-Blue assay)” value came to 0.0864 µM.

Take B8: the “IC50 of IL-1β signaling (HEK-Blue assay)” value came out at 0.0105 µM.

Turning to B9, the “IC50 of IL-1α signaling (HEK-Blue assay)” value amounted to 0.528 µM, the “IC50 of IL-1β signaling (HEK-Blue assay)” value worked out at 0.0202 µM and the “IC50 of IL-33 signaling (HEK-Blue assay)” value came out at 0.0747 µM.

In the case of B10, the “IC50 of IL-1α signaling (HEK-Blue assay)” value was determined as 0.401 µM, the “IC50 of IL-1β signaling (HEK-Blue assay)” value is 0.00577 µM and the “IC50 of IL-33 signaling (HEK-Blue assay)” value was 0.183 µM.

B11: the “IC50 of IL-1α signaling (HEK-Blue assay)” value worked out at 0.288 µM, the “IC50 of IL-1β signaling (HEK-Blue assay)” value was determined as 0.00987 µM and the “IC50 of IL-33 signaling (HEK-Blue assay)” value was determined as 0.474 µM.

B12: the “IC50 of IL-1β signaling (HEK-Blue assay)” value was determined as 0.0223 µM.
